Data taken from US8889126B2, “Methods and compositions for treating neuropathies” (Washington University, priority 2004, dated 2014).

B1: dominant-negative Ufd2a mutant: Ufd2a containing a point mutation (P1140A) that inhibits wild-type Ufd2a function (protein, UniProt Q9ES00 1-1173, looked up, variant P1140A)
Ubiquitin conjugation factor …: MEELSADEIRRRRLARLAGGQTSQPTTPLTSPQRENPPGPPIAASAPGPSQSLGLNVHNMTPATSPIGAAGVAHRSQSSEGVSSLSSSPSNSLETQSQSLSRSQSMDIDGVSCEKSMSQVDVDSGIENMEVDENDRREKRSLSDKEPSSGPEVSEEQALQLVCKIFRVSWKDRDRDVIFLSSLSAQFKQNPKEVFSDFKDLIGQILMEVLMMSTQTRDENPFASLTATSQPIATAARSPDRNLMLNTGSSSGTSPMFCNMGSFSTSSLSSLGASGGASNWDSYSDHFTIETCKETDMLNYLIECFDRVGIEEKKAPKMCSQPAVSQLLSNIRSQCISHTALVLQGSLTQPRSLQQPSFLVPYMLCRNLPYGFIQELVRTTHQDEEVFKQIFIPILQGLALAAKECSLESDYFKYPLMALGELCETKFGKTHPMCNLVASLPLWLPKSLSPGSGRELQRLSYLGAFFSFSVFAEDDAKVVEKYFSGPAITLENTRVVSQSLQHYLELGRQELFKILHSILLNGETREAALSYMAALVNANMKKAQMQADDRLVSTDGFMLNLLWVLQQLSTKIKLETVDPTYIFHPRCRITLPNDETRINATMEDVNERLTELYGDQPPFSEPKFPTECFFLTLHAHHLSILPSCRRYIRRLRAIRELNRTVEDLKNNESQWKDSPLATRHREMLKRCKTQLKKLVRCKACADAGLLDESFLRRCLNFYGLLIQLMLRILDPAYPDVTLPLNSEVPKVFAALPEFYVEDVAEFLFFIVQYSPQVLYEPCTQDIVMFLVVMLCNQNYIRNPYLVAKLVEVMFMTNPSVQPRTQKFFEMIENHPLSTKLLVPSLMKFYTDVEHTGATSEFYDKFTIRYHISTIFKSLWQNIAHHGTFMEEFNSGKQFVRYINMLINDTTFLLDESLESLKRIHEVQEEMKNKEQWDQLPRDQQQARQSQLAQDERVSRSYLALATETVDMFHLLTKQVQKPFLRPELGPRLAAMLNFNLQQLCGPKCRDLKVENPEKYGFEPKKLLDQLTDIYLQLDCARFAKAIADDQRSYSKELFEEVISKMRKAGIKSTIAIEKFKLLAEKVEEIVAKNARAEIDYSDAPDEFRDPLMDTLMTDPVRLPSGTVMDRSIILRHLLNSPTDAFNRQMLTESMLEPVPELKEQIQAWMREKQSSDH
B2: NMNAT1: nicotinamide mononucleotide adenylyltransferase1, murine, lentivirally expressed (protein, UniProt Q9EPA7 1-285, looked up)
Nicotinamide/nicotinic acid …: MDSSKKTEVVLLACGSFNPITNMHLRLFELAKDYMHATGKYSVIKGIISPVGDAYKKKGLIPAHHRIIMAELATKNSHWVEVDTWESLQKEWVETVKVLRYHQEKLATGSCSYPQSSPALEKPGRKRKWADQKQDSSPQKPQEPKPTGVPKVKLLCGADLLESFSVPNLWKMEDITQIVANFGLICITRAGSDAQKFIYESDVLWRHQSNIHLVNEWITNDISSTKIRRALRRGQSIRYLVPDLVQEYIEKHELYNTESEGRNAGVTLAPLQRNAAEAKHNHSTL
modifications: lentivirally expressed
B3: NmPRT: nicotinamide phosphoribosyltransferase, expressed in neurons (protein, UniProt Q99KQ4 1-491, looked up)
Nicotinamide …: MNAAAEAEFNILLATDSYKVTHYKQYPPNTSKVYSYFECREKKTENSKVRKVKYEETVFYGLQYILNKYLKGKVVTKEKIQEAKEVYREHFQDDVFNERGWNYILEKYDGHLPIEVKAVPEGSVIPRGNVLFTVENTDPECYWLTNWIETILVQSWYPITVATNSREQKKILAKYLLETSGNLDGLEYKLHDFGYRGVSSQETAGIGASAHLVNFKGTDTVAGIALIKKYYGTKDPVPGYSVPAAEHSTITAWGKDHEKDAFEHIVTQFSSVPVSVVSDSYDIYNACEKIWGEDLRHLIVSRSTEAPLIIRPDSGNPLDTVLKVLDILGKKFPVTENSKGYKLLPPYLRVIQGDGVDINTLQEIVEGMKQKKWSIENVSFGSGGALLQKLTRDLLNCSFKCSYVVTNGLGVNVFKDPVADPNKRSKKGRLSLHRTPAGNFVTLEEGKGDLEEYGHDLLHTVFKNGKVTKSYSFDEVRKNAQLNIEQDVAPH

Experiments:
[1] = test system: DRG explant neurons; experiment: in vitro Wallerian degeneration assay: DRG explant cultures, axonal transection by removal of neuronal cell bodies; type: cell-based, mouse; conditions: lentivirus-infected DRG neurons
Method: (§1) To identify the mechanism of delayed axonal degeneration mediated by the Wld^s protein, we employed an in-vitro Wallerian degeneration model. Primary DRG explant neurons were infected with lentivirus expressing the appropriate proteins, and axons were injured by either removal of the neuronal cell body (transection) or growth in vincristine (toxic).
Mouse DRG explants from E12.5 embryos were cultured in the presence of 1 nM nerve growth factor. Non-neuronal cells were removed from the cultures by adding 5-fluorouracil to the culture medium. Transection of neurites was performed at 10-20 DIV using an 18-gauge needle to remove the neuronal cell bodies. […]
Lentiviral expression vectors were generated using HEK293T cells as described above. […] These lysates were analyzed by immunoblot to using anti-His tag monoclonal antibody (Qiagen) to detect expression of the respective hexahistidine-tagged proteins. […]
Quantitative analysis of axonal degeneration was performed as previously described (Zhai, et al., Neuron 39:217-25, 2003). […] Axons with a fragmented, non-refractile appearance were designated as “degenerated.” At each time point, at least 200 singly distinguishable axons were blindly scored from several randomly taken images of each culture. […]
Cell culture, in vitro axotomy, and quantification of axonal degeneration. […] Quantitative analysis of neurite degeneration was performed.

[2] = test system: DRG neurons; experiment: overall cellular NAD levels in DRG neurons by microscale enzymatic assays; type: cell-based; conditions: NMNAT1 expressing vs wild type DRG neurons
Description: Similarly, most enzymes that make up the NAD salvage pathway in yeast are also compartmentalized in the nucleus. […] Furthermore, levels of tissue NAD in the brains of wild type and wld^s mice are similar despite the increased levels of NMNAT activity in wld^s mice (Mack, et al., Nat Neurosci, 4:1199-206, 2001).

[3] = test system: DRG neuronal explant; experiment: vincristine-induced axonal degeneration in DRG neuronal explants; type: cell-based, mouse; conditions: 0.5 μM vincristine for up to 9 d, lentiviral expression
Method: as §1
Quantitative analysis of axonal degeneration was performed as previously described (Zhai, et al., Neuron 39:217-25, 2003). Briefly, the cultures were examined using phase contrast microscopy at the indicated times. Axons with a fragmented, non-refractile appearance were designated as “degenerated.” At each time point, at least 200 singly distinguishable axons were blindly scored from several randomly taken images of each culture. […] For calculations of neurite-covered area, digitally captured images from quadruplicate samples of two independent experiments were analyzed using analysis 3.1 software (Soft Imaging System, Lakewood, Colo.).
In addition to mechanical transection, axonal protection in wld^s mice is also observed against other damaging agents such as ischemia and toxins (Coleman, et al., Trends Neurosci 25:532-37, 2002; Gillingwater, et al., J Cereb Blood Flow Metab 24:62-66, 2004). […] FIG. 2C illustrates protein expression in lentivirus-infected cells detected by immunoblot analysis using antibodies to the 6×His tag. […]

Molecule | axonal degeneration after transection in neurons expressing the construct [1] | overall cellular NAD levels [2] | axon length and refractility in vincristine [3]
B1 | neither of these methods resulted in delayed axonal degradation |  | 
B2 |  | no changes in overall cellular NAD levels were found | maintained their original length and refractility
B3 | shows axonal protection |  | 
